Laboratory results reported in paper PMC3553216 (Biochemistry, 2013).
Like-named read-outs stand apart in the source and are kept apart here.

Columns and labels:
AUC [1] = experiment: AUC
[2] = target: full-length SaPC F403A mutant (Staphylococcus aureus); experiment: SEC
[3] = target: full-length SaPC F403A mutant (Staphylococcus aureus); experiment: AUC
[4] = target: full-length SaPC F403A mutant (Staphylococcus aureus); experiment: AUC; remark: listed apart in the source
[5] = target: full-length SaPC K442E mutant (Staphylococcus aureus); experiment: SEC
[6] = target: full-length SaPC K442E mutant (Staphylococcus aureus); experiment: AUC
[7] = target: full-length SaPC K442E mutant (Staphylococcus aureus); experiment: AUC; remark: listed apart in the source
[8] = target: full-length SaPC R54E mutant (Staphylococcus aureus); experiment: SEC
[9] = target: full-length SaPC R54E mutant (Staphylococcus aureus); experiment: AUC
[10] = target: full-length SaPC R54E mutant (Staphylococcus aureus); experiment: AUC; remark: listed apart in the source
[11] = target: isolated BC domain of SaPC, R54E mutant (Staphylococcus aureus); experiment: AUC
AUC [12] = target: the molecule itself; experiment: AUC
AUC [13] = target: the molecule itself; experiment: AUC; remark: listed apart in the source

## full-length SaPC F403A mutant
AUC [1]
  Monomer (%): 9%

## full-length SaPC F403A mutant (enzyme)
[2]
  stoichiometry N: 4
[3]
  Dimer (%): 2%
  Kd: 450 nM
  Tetramer (%): 85%
[4]
  Kd: 11 nM

## full-length SaPC K442E mutant
AUC [1]
  Monomer (%): 10%

## full-length SaPC K442E mutant (enzyme)
[5]
  stoichiometry N: 2
[6]
  Dimer (%): 65%
  Kd: 820 nM
[7]
  Kd: 840000 nM

## full-length SaPC R54E mutant
AUC [1]
  Monomer (%): 4%

## full-length SaPC R54E mutant (enzyme)
[8]
  stoichiometry N: 4
[9]
  Dimer (%): 0%
  Kd: 530 nM
  Tetramer (%): 96%
[10]
  Kd: 3 nM

## isolated BC domain of SaPC, R54E mutant (domain or fragment)
[11]
  Kd: 195000 nM

B1: wild-type full-length Staphylococcus aureus pyruvate carboxylase (enzyme, UniProt A0A0H3JRU9 1-1150, looked up)
chain: MKQIKKLLVANRGEIAIRIFRAAAELDISTVAIYSNEDKSSLHRYKADESYLVGSDLGPAESYLNIERIIDVAKQANVDAIHPGYGFLSENEQFARRCAEEGIKFIGPHLEHLDMFGDKVKARTTAIKADLPVIPGTDGPIKSYELAKEFAEEAGFPLMIKATSGGGGKGMRIVREESELEDAFHRAKSEAEKSFGNSEVYIERYIDNPKHIEVQVIGDEHGNIVHLFERDCSVQRRHQKVVEVAPSVGLSPTLRQRICDAAIQLMENIKYVNAGTVEFLVSGDEFFFIEVNPRVQVEHTITEMVTGIDIVKTQILVAAGADLFGEEINMPQQKDITTLGYAIQCRITTEDPLNDFMPDTGTIIAYRSSGGFGVRLDAGDGFQGAEISPYYDSLLVKLSTHAISFKQAEEKMVRSLREMRIRGVKTNIPFLINVMKNKKFTSGDYTTKFIEETPELFDIQPSLDRGTKTLEYIGNVTINGFPNVEKRPKPDYELASIPTVSSSKIASFSGTKQLLDEVGPKGVAEWVKKQDDVLLTDTTFRDAHQSLLATRVRTKDMINIASKTADVFKDGFSLEMWGGATFDVAYNFLKENPWERLERLRKAIPNVLFQMLLRASNAVGYKNYPDNVIHKFVQESAKAGIDVFRIFDSLNWVDQMKVANEAVQEAGKISEGTICYTGDILNPERSNIYTLEYYVKLAKELEREGFHILAIKDMAGLLKPKAAYELIGELKSAVDLPIHLHTHDTSGNGLLTYKQAIDAGVDIIDTAVASMSGLTSQPSANSLYYALNGFPRHLRTDIEGMESLSHYWSTVRTYYSDFESDIKSPNTEIYQHEMPGGQYSNLSQQAKSLGLGERFDEVKDMYRRVNFLFGDIVKVTPSSKVVGDMALYMVQNDLDEQSVITDGYKLDFPESVVSFFKGEIGQPVNGFNKDLQAVILKGQEALTARPGEYLEPVDFEKVRELLEEEQQGPVTEQDIISYVLYPKVYEQYIQTRNQYGNLSLLDTPTFFFGMRNGETVEIEIDKGKRLIIKLETISEPDENGNRTIYYAMNGQARRIYIKDENVHTNANVKPKADKSNPSHIGAQMPGSVTEVKVSVGETVKANQPLLITEAMKMETTIQAPFDGVIKQVTVNNGDTIATGDLLIEIEKATD
AUC [12]
  Kd: 750 ± 60 nM
AUC [13]
  Kd: 8 ± 0.6 nM
